# Source: patent US20230212549A1, “COMPOUNDS COMPRISING A […] LIGAND AND USE THEREOF” (priority 2021, published 2023)
# Numbered stars: 1 amine (or outer) side, 2 acyl side, 3 side chain; on linkers, the order of the positions; unused ones are H or OH. Bridge positions count the residues as written; N and C are the ends. Square brackets hold non-standard residues; d marks the D form. Primed or numbered codes have the meaning given here. * marks the point of attachment. Ttds″ = 1,13-diamino-4,7,10-trioxatridecan-succinamic acid spacer, O=C(CCC(=O)[*:2])NCCCOCCOCCOCCCN[*:1]; N4Ac = 6-Carboxy-1,4,8,11-tetraazaundecane, an N4-chelator, NCCNCC(CNCCN)C(=O)*; mXylylene = c1cc(C[*:1])cc(C[*:2])c1; 4Pal = N[C@@H](Cc1ccncc1)C(=O)O; Nle = CCCC[C@H](N)C(=O)O; Hexanoyl = CCCCCC(=O)*
# T1: Cathepsin F (UniProt Q9UBX1)
# T1 sequence (looked up): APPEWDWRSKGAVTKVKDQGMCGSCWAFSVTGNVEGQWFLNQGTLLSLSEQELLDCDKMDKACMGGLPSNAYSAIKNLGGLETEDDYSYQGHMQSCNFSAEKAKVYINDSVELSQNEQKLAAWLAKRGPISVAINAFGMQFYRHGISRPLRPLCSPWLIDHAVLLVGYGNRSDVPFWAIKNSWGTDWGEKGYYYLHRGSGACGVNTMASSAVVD
# Columns and labels:
# [1] = molecular target: T1, Cathepsin F; assay: cell-based or functional assay
# [2] = molecular target: human fibroblast activation protein (FAP) on WI-38 fibroblasts (human) (UniProt Q12884); assay: competitive FACS, WI-38 cells, Cy5-labeled peptide as competitor; C = pIC50 6.1 to 7.0
# [3] = molecular target: fibroblast activation protein (FAP) on FAP-expressing human WI-38 fibroblasts (human), Q12884; assay: competitive FACS, WI-38 cells, vs Cy5 tracer m3; A = pIC50 >8.0; details: remark: other sources report otherwise
binder,measurement,setting,value
"Cystatin C (protein, UniProt P01034 27-146, looked up) SSPGKPPRLVGGPMDASVEEEGVRRALDFAVGEYNKASNDMYHSRALQVVRARKQIVAGVNYFLDVELGRTTCTKTQPNLDNCPFHDQPHLKRKAFCSFQIYAVPWQGTMTLSKSTCQDA","Percentage inhibition (%), reference at 1 µM",[1],74%
N4Ac-[Ttds″][Nle]CPPTE[4Pal]C-OH (linker 3-9 via mXylylene; SMILES CCCC[C@H](NC(=O)CCC(=O)NCCCOCCOCCOCCCNC(=O)C(CNCCN)CNCCN)C(=O)N[C@H]1CSCc2cccc(c2)CSC[C@@H](C(=O)O)NC(=O)[C@H](Cc2ccncc2)NC(=O)[C@H](CCC(=O)O)NC(=O)[C@H]([C@@H](C)O)NC(=O)[C@@H]2CCCN2C(=O)[C@@H]2CCCN2C1=O) [N4Ac-Ttds-Nle-[Cys-(3MeBn)-Pro-Pro-Thr-Glu-Ppa-Cys]-OH],pIC50,[2],6.1 to 7 pic50
Hexanoyl-CPPTEFCD-NH2 (linker 1-7 via mXylylene; SMILES CCCCCC(=O)N[C@H]1CSCc2cccc(c2)CSC[C@@H](C(=O)N[C@@H](CC(=O)O)C(N)=O)NC(=O)[C@H](Cc2ccccc2)NC(=O)[C@H](CCC(=O)O)NC(=O)[C@H]([C@@H](C)O)NC(=O)[C@@H]2CCCN2C(=O)[C@@H]2CCCN2C1=O) [Hex-[Cys(3MeBn)-Pro-Pro-Thr-Glu-Phe-Cys]-Asp-NH2],pIC50 Category (FACS),[3],> 8 pIC50
